In US20240174754A1 (ABCURO, published 2024):

Columns and labels:
[1] = biological target: T1, full length human KLRG1 expressed on CHOK1 cells (CHOK1-hKLRG1) (human, UniProt Q96E93 1-195); assay: FACS competition on CHOK1-hKLRG1 cells; inhibition of E-cadherin-ECD-FC-biotin (0.3 uM) binding
T1 construct: whole, on cells; also called killer cell lectin-like receptor G1
T1 sequence (looked up): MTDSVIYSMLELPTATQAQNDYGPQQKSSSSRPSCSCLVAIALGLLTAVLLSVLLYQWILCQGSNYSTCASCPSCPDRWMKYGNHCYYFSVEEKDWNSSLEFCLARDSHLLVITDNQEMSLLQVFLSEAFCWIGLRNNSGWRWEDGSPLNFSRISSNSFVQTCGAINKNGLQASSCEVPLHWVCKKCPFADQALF
Procedure: The ability of monoclonal antibodies to inhibit E-cadherin/KLRG1 binding is measured by FACS.
(§1) CHOK1-hKLRG1 expressing cells were cultured and incubated with varying concentrations of either PA015 or control human IgG1. Recombinant human E-cadherin-ECD-FC-biotin at 0.3 μM was then added and incubated. Cells were then centrifuged, the supernatant discarded, and washed with an incubation buffer (HBSS+2% FBS+10 mM Ca2+). Cells were resuspended and incubated with Streptavidin-Alexa 488, washed, resuspended, and underwent FACS study.

[2] = biological target: T1, full length human KLRG1 expressed on …; assay: FACS competition on CHOK1-hKLRG1 cells; inhibition of E-cadherin-ECD-FC-biotin (0.3 uM) binding (Example 7)
Procedure: as §1, with “PA015, HG1N01, HG1N02” for “either PA015”, “were” for “were then”

[3] = biological target: T1, full length human KLRG1 expressed on …; assay: FACS on CHOK1-hKLRG1 cells, anti-human IgG-Alexa 488 detection
Procedure: Binding of anti-KLRG1 monoclonal antibodies to cell expressed human and cynomolgus-KLRG1 is carried out by FACS. Chinese hamster ovary (CHO) cells are stably transfected to express full length human KLRG1 (CHOK1-hKLRG1)). CHOK1-hKLRG1 expressing cells were cultured and incubated with varying concentrations of either PA015 or control human IgG1. Cells were then centrifuged, the supernatant discarded, and washed with an incubation buffer (HBSS+2% FBS+10 mM Ca2+). Cells were resuspended and incubated with anti-human IgG-Alexa 488, washed, resuspended, and underwent FACS study.

- IC50 [1]: 8.05 nM
- IC50 [2]: 5.3 nM
- EC50 [3]: 1.33 nM
B1: PA015 (antibody, human IgG1, kappa, V domains shown)
VH: QVTLRESGPALVKPTQTLTLTCTVSGFSLSTFGMGVGWIRQPPGKALEWLAHIWWDDDKWYELALKSRLTISKDTSKNQVVLTITNMDPVDTATYYCARVIYYGSRSAYYSMDYWGQGTTVTVSS
VL: DVVMTQTPLSLSVTPGQPASISCKSSQSIVHSNAHTYLEWYLQKPGQSPQLLIYKVSNRFSGVPDRFSGSGSGTDFTLKISRVEAEDVGVYYCFQGSHVPVTFGQGTKLEIKR
notes: also called PA015 antibody; anti-KLRG1 antibody PA015
